B1: His-tagged ubiquitin-like domain of Parkin (UblD, residues 1-76) (domain or fragment, human, UniProt O60260-1 1-76, looked up)
chain: MIVFVRFNSSHGFPVEVDSDTSIFQLKEVVAKRQGVPADQLRVIFAGKELRNDWTVQNCDLDQQSIVHIVQRPWRK
notes: Parkin residues 1-76 (NM_004562.1), ubiquitin-like domain; also called His-UblD; source: E. coli BL21 DE3, purified (nickel sepharose, dialysed for Biacore); not shown: His6, C-terminal, kept
B2: Parkin domain R0RBR (residues 141-465) (domain or fragment, human, UniProt O60260-1 141-465, looked up)
chain: SIYNSFYVYCKGPCQRVQPGKLRVQCSTCRQATLTLTQGPSCWDDVLIPNRMSGECQSPHCPGTSAEFFFKCGAHPTSDKETSVALHLIATNSRNITCITCTDVRSPVLVFQCNSRHVICLDCFHLYCVTRLNDRQFVHDPQLGYSLPCVAGCPNSLIKELHHFRILGEEQYNRYQQYGAEECVLQMGGVLCPRPGCGAGLLPEPDQRKVTCEGGNGLGCGFAFCRECKEAYHEGECSAVFEASGTTTQAYRVDERAAEQARWEAASKETIKKTTKPCPRCHVPVEKNGGCMHMKCPQPQCRLEWCWNCGCEWNRVCMGDHWFDV
notes: Parkin residues 141-465 (NM_004562.1), R0, R1, IBR and R2 domains; Cloned into the Champion pET SUMO vector; The Sumo tag was removed with SENP1, and the protein is called untagged in the SPR methods; also called R0RBR Domain; source: E. coli BL21 DE3, purified (Ni sepharose, Mono Q, SENP1 cleavage, Superdex 200)

Holding throughout (assay): SPR; untagged R0RBR immobilised by amine coupling (10 mM acetic acid pH 5.0) on a CM5 chip; protein ligands injected; 25°C; 10 mM HEPES pH 7.4, 150 mM NaCl, 0.005% Tween-20, 4 mM reducing agent; 1:1 binding model
Holding throughout (conditions): both partners purified
On the technique in general: In SPR one partner is held on a chip, and binding of the other changes the refractive index at the surface.

The target of assay [1] is B2.
Assay [2] concerns the target T1, Ubiquitin (UniProt P0CG47 1-76).
T1 construct: ubiquitin, the cut product of a polyubiquitin or fusion precursor; neither species nor construct is stated; also called Ubq; source: bought: Boston Biochem

For assay [3], the target named is T2, UbcH7, E2 ubiquitin conjugating enzyme (UBE2L3 residues 1-154) (human, UniProt P68036-1 1-154).
T2 construct: UBE2L3 (UbcH7) residues 1-154 from NM_003347.2; UbcH7 was also bought from Boston Biochem. TEV cleavage probably leaves SS at the N-terminus (surmised); also called E2 UbcH7; source: E. coli BL21 DE3, purified (nickel sepharose, TEV cleavage, Superdex 200); not shown: His8, N-terminal, cleaved
T2 sequence (P68036 whole entry, the tested form may be a part): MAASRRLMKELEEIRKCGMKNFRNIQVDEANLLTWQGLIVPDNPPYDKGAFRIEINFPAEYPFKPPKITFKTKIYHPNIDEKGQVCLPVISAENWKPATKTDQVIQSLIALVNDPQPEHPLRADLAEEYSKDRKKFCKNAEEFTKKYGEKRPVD

The Kd is the free concentration of one partner at which half of the binding sites on the other are occupied at equilibrium, for simple one-to-one binding. Consider B1, for which the affinity in assay [1], expressed as Kd, was 6 µM.
Turning to B2, the dissociation constant (Kd) in assay [2] was found to be 96 µM; in assay [3], 7.1 µM.
